Reference: the NTF2 design screens of Basanta et al. (2020)

Test: protease stability score; higher = more stable; yeast display proteolysis, trypsin and chymotrypsin;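 further: log10 excess protease needed over predicted unfolded state with 0 meaning unfolded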

Sequence	protease stability score
DRNHVKEIAKEILKAMETNDEKRMSELMDKNVRLVYGDTEVHGRERVLTTIKHELESIDHVNFHDMSVDGDKIHVVYHVQKNGDRRQVEVRYVISNGKIQEVQINTR	0.623
DRNRRAEEFARTQLKAFKHGDEKLLRDLFDPNVHISVGDQTVHGRDEVARQEKDQATQVDHATRKIDRVEMNGDQVEVRARIRLNFNGQDRSTDVVYHATDDNGHIVVKSVRQG	0.017
DRQASEVARKILQAIRKGDPETMKELVDPNVNVTVGEKTFKGREEAARHFVERQKQIRVQVDSMEVSAHNGKVDARMKVLYNHNGRPVKMDVVVHFDMKNGKARRAEYRVDEEQRRRLET	0.082
DRQNKAQDLAEELRRAFHTNNEDQFKKLADKNARATVGEHTFHGSDEIRKVLKELVDNVDHLRVDIHSVSVHNGQINIDMKLILDHNGRKETQEVHIRAQDHNGQNKVRNITFG	-0.154
DRQVVRDAQTIFRLEKHGNENDVRRMADPNVDVNIGDKEIRGREEFAKSMRRKRDEIRVSLEIKNWTTTGDKANIDAKMQEEHNGRPSEKRVHIIVTATNGRMKSAHYHNTK	-0.006
DRRDLQLVERVLRALQTGDEDKVMENLDPNARVEYGDKEYHGREQLHEQIERDHRNMRFSIDVKRVDLHGDRAHFDATVTMNINGKPFEDRFHIDVVARNGRIKHLSMKMDPDRVKEVES	-0.157
DRREAHKRAQEMVDNFRDNDKDRIVELADKDVHARIGDKRLHGREELATFLVELARRADRVEVKSIHVQGEQIEMDMQMTVDGRERTFTLRMTYHNGKLKHLEIDPDDLRKIES	0.987
DRRETAKEVMKKISDILKENDENRLEDLMDPNAKVNVGDKRVHGRREAANQMVEEHTRYDHMDMDIRRIDVDGDKIIVIFTVTLTNNGKTDTKNVVIYFTVHNGRVQITRIRHK	-0.157
DRRQEARDIQHDQNRALKHGDQESAQRLFDENARIKIGDRQWHGSDDVMTEVREQHKKVDSIRIHVVSIDVRGDQYDINVQYNLHYDGDNDTFRATQRLKKHNGSVRVVDQHEQ	-0.276
DRSQVESAMRKALHNDPREHEKMFDKDARIQIGDTTFTGQETVLRVIRQLLTKADHIQINDYEISGNKVRIDVQVEVNGRRVRVELDFTVSNGRIKHATWKARSEEELHRIKENLR	0.239
DRTAEKVLRQFLHAIRDNNPEQMVDLMDPNVTLEIGDKEITGRESAARTAKTRNDEQRMSLSDYRIDVKGDRITADIDQYNEHNGKPRRHQYILDVNIHNGKIKSLVYESDK	-0.029
DRTEILKHMFDDLAQVRRDGDPEKLNELMDEDVKARYGDKEYHGREDVARNIHRLASQADHVHIQLDRMSVDNGKARLEADVRIEHNGKVDEVRVEIRADVDNGRVNLREMIYR	0.839
DRTKTAKKVWDDFRSIMENNDPKEAEKLFDENAKADLGSKQVHGREQMVEMLRELAERVDHVEIRMKTVTDDNGQLNIEAEVRAEINGKQHTWRNQLNVVQQGDKRRIVSAKYG	-0.42
DSDAARELVKALNTGNEEELKHMVDPNARARVGDKRLHGRDELFRFWHKLKRHVDHRRVNKVEIHGEKAHVDVQLNVDGRNIRVNIVMEAHNGRVKEFTIEFRDRDARKEFRNQVD	1.16
DSDAARILVEFWTALQKGDHDRLKQNMDPNAKMKIGDHTLHGREQIAEHATKLKREMRIDIRLKSFDDDGDHAILKFEMRVDVNGKPFSMDVTVNVKAHNGHLVKVNFRIPEKDLQRLNS	0.633
DSDEIRKFFQQLHTNDEKKLRRNFDKDARFEVGDKDYHGQENAQEAMAQIFQRADHVTYKTVKVEGDKVDMNLQIQVNGKQFDLRLHAKFDNGRLKEASLHVTSEEQHTEVLEMLS	0.643
DSDEVRKFNEKVKTGNPKHLQDMFDENAKVQIGNKDFRGREHVQTVIDKIERDVDHKEIKRMEVKGDHFEIDAIYNINGHNIRMIIKIQVRNGKIQNMTVEFTNEEQQEIFEENVQ	0.423
DSDKIDNVVKTIMHDLRKGNPERVMKNADKDVKIVVGDKRYHGRETLETLMKEMVDQADHIQFHSVNIRGEKVVVVAVLQHNGVNVDVQFNMEIDNGRATKVELKVRNPEQQKKFDS	0.583
DSDKLRKSAKKFLDLQRTGNEDELKKMIDPNAKAVVGDKEYHGSTEIAHALARMRREVDHITLDRFQFKGNRLKANMTYQHNGRRDRFVVTVTMHNGRVSHITFKST	0.38
DSDLVRKMKKFEENRRTGNEHEVDKMIDPNAKLQVGDKTIHGRERQRDYMRELKNSARLDLKIDRVHDQPGRVVATFILKVNINGRPDTIRVKLVIQWHNGEIQRAELRVPEEWMDRFKQ	0.642
DSDQSKREMDKFLEMVSTGDPDEVNRLLDKDAHAHVGDQTYHGREEISHMWKELREKIDHLEVHDYKVNGNKLEVDMHATINGQNVVFTVVAVLRNGHFESVEVQYRSEEEEEKVKR	0.452
DSEAAKRAETFIRNLVQGNEDELRDMADKDVNFQVGDKTVHGREQWQEEVSRTEKEARVEMRVDDYRDEPGTVKLNAKVTIEYNGQPFTVNLHVEIHFKNGKMQRAVFEIDPEVQKEVES	0.692
DSEAEDLLRRILDAIRTNNREELHRQIDPNAHFEIGDREFKGMTQWATEIVRQAKEIRVDQSFHSISIRNGKLSARVEQVNETNGKPHSRQFKLRMKWHDGQVKFLSMEDDG	0.362
DSEAHELADTIMHALKHNNPDQLKEQFDPNVRVDIGNNRYHGREQFATEVIRTLREWRVEYKSFDQRNSGDKVDLRIRFVVNVNGRPHRYSVTVHLNFKDGRVKKMKVEMDPDQERKQTQ	0.914
DSEAQKIAEKLHEAWNTNNPNEAQHLMDPNAHVRVGDKEIDGMDQYVREMQRLLDKLRLEVKDWDVRAHNGNVTLRANARVDVNGQPQEYTYVIVMQVKNGRVKELHLHIDEEELRTLES	1.02

Sequence	protease stability score
DSEDLVRKFITEWEQAVQQGDEKQLQELMDEDAHVSVGDTKLHGREDIARELAEQIRHADHVQFRIESLSVHGDHVNLNQKVRYKHNGKTDSSRYRLQAIAHGDKVTLKSFHDG	-0.28
DSEEAKKADEVVQTNDEDRLRDLLDEDARIIIGEFTFHGRHKAEEAVKRFQDAVDHIEIEDYDVQGNEITVVFTVSFNGKKMRFKASFHLRNGRLKHMSMTFTDPDQEREMSNLLR	0.56
DSEEEKTISEQLRTNNPDDAEKLVDENARIVVGDKVIDGRKDAHRFFKRLTEQIDHLQVDSLTVKNGRFSLDFRFNVNGRDLRMVMKVVVDNGKIQYMQLDARDHDIQEHMRDALR	0.967
DSEERHDFAHKVMEVFQQGDPDQMRDMADPNVRLHVGEKNVTGRDRVRTALTEFRQRVDHVQVDHVHVTGDKIVIHATVEINGRRRRVIIVARVRNGRIHEIEVDLK	1.61
DSEERKTVARELNKVLKENDEEKFKRLADENVKLHYGDKEFHGRERAEQVLREWKKRIDHLEVNHVNNTGDRIVIHATVNVNGVNVHLEFNARLDNGHVTSVRLQYRDEEDRKRLES	0.814
DSEKDKDWLRKLQSAVERNDPDSVMRLLDPNAEANYGDQTLHGREHIRKMFSELLKHADHVEVTDVRAHNGRLQLDVIMTINGRKSRYDLQFQFSNGRVKKVSVHSR	1.26
DSEKIKDVARQLVRQIEENNPDEIVKLLDPNARADYGDKRISGHEKIADELRKFHERADRIRVETVEVHNGRIVIDLHVNINGRMQRFHVFADLHNGKIKRIEFQTG	1.54
DSEKMHEINKALKTNDPDKLEQLMDKDVRAKVGDKTFHGREEVVKMWRDLYKQADHVNVDRVDVQGEKIDATVRADFNGTSVDYKVHISASNGRIKHITVTVTDEERHRQLQSVLG	1.31
DSEKNEALQRAVEIWNSNDPDKLKKQFDPNARHTYGDTVVHGRENLARRLEQLKRESRLTFQVTHLDVHNGKVTADVTIVEEHNGKPDTKRMDVQANVQNGRFKSVYVHESS	-0.003
DSEKYLKDLNSNLLRILQTNDEKKLRDLVDKDVKITVGDKSYHGREEFAKVLRTLLNEHDKWRVHYQSIHQHNGKLRAVIDLKAENNGQTLSRNLDITAEERNGEVHVKHAQIG	1.08
DSENVKVVREFIKAVERNDHQKLRDLVDPNATAQIGDKEYTGMDDIVTRIIETIRQLRFKIKLHHVDNHNGVVNVKAVFTFEHNGKPDKREVDIRVEITNGKVTNFQYQEHK	2.08
DSERAKEVVKEFEHNDRQKFRDLFDEDASVTIGNRTYHGRHEVERALKRHIDRVDHVKINSVQIRGERIHMEAVFNINGQEFTLQMTLQLSNGKVKTWVLRVTDPDLKRKLHKNME	1.15
DSERAKQWTHFLRLMETGNEEDLSKMADPNARFQVGDETYKGKDDVTKWARTVKTHMRVTYKRLNNDDEEGHARIEADYQYDHNGKPEEDKNSLVLSFHNGQIKEVVIHHVS	0.164
DSERASEAARTFVDAMRTNDEKQFNELFDPNARVRIGDEKVHGMDRITDQLHNLNKKADHNEVLDYKVNGNTAVVHFQVDHNGQTRRYRIVITMHNGRVHEMQVNTK	0.458
DSERRQREAENFFKNLQTGNKHEFEKLFPPDVRAQVGEKEIHGREEAQKWWKNIHDRADHMQIDHFDVDGNKITFDMRMNVDGHEIRMRLTIRLENGQYRSLTAEVRDEDAERRLKS	0.672
DSEVLDVLTSIVKNIHNGNPDEVMKQMDPNARVQVGDDRFHGDRKQQEDVQTLLDTMEVNIHITSVDFDGDKVTVRFKVEYNVNGRPFRIEAEMQAVAKNGRIQDLKVRIDKQFLSELKS	0.858
DSHAENLLQQVLKALETGDQKRVMELFDPNAKVRYGDKTLHGREEIRKYVKKLKDEMQIRIEVRSVTVQGNKITADVVVRADVDGKPVEMRVRIHVEFENGKIHSLSVDMDPEQVKELEK	1.56
DSHAHNVADEVMRALQENDEDSLRQLLDPNVEFHIGDTTYHGREQVRHWITRLKEQMRVKFDLKDLKVQGDTVHIKLRLEQEHNGQPRQHNVVINVKIDNGRVKKISFQHTK	1.64
DSHEKAEKWARKLNQVWEHNDPDRAMEMVDPNVRVDIGDRRYHGREDWRKMVEHLNKRVDHMEFKFDQVDAHNGKIRITVTFTYTIDGQERTERLVFHVDNVNGRLVAQKAHDG	0.343
DSHLEHKAHEWVKAVNENDPDRLVQLMDKDVKIDVGDKKFSGRENYATEVKKEQDEARVEWKDVKLSADNGKLELQADVVRRHNGQPQRWKVENIYTDKNGVAKYLTNKSKP	-0.423
DSHLQEEVERFWKQLEHGNRQNLRELADEEVNFVYGDKTIHGREKAATHMSKRVRKIQIEWKTYSAEVHNGKLDATAEWRADHNGKPKDVKMTFYVKVHNGRIKEVNIQEEK	0.178
DSHQQAREMVRELQRILETNDTDKWRHMFDPNARAQYGDKEYHGRDQVTHYLQEQTQRVDSVRVNIDEVDVSGDKLRVVFTLVRVHNGEEKSDTYVFVLRFHGDHARIESFRRK	0.687
DSHTIAKELMKTWQDAARNNDEDKLKELIDKDASASVGDKTFHGRESFARHVQEQARRADHLEVRLESMSINGDHIHLQFVVRYNVNGKESSDRYVVIFHKVNGKFRVRQIKQR	0.721
DSKELARRFHTELLENLRHNDSERLRRLLDEDARVHVGDKEVHGREQFADEQTKIMEHFDRVELRIREVTIEEGRVKVLIHFDADNNGEKHTDNSEVTFDNQGDKLTNKTQHES	-0.13
DSKEVRKAEELAKAVRTGDPDTIVKLMDPNARLKVGDREYRGQKDVQKFLKRVLDEIRVKLDVQDIKAHNGKVKVRATVVQRKNGTPHHRTMRMWVQMNNGHVEELSVSNDS	0.401
